From publication PMC3077247

Target: HECT domain of Nedd4, Y605A (as used for SPR) (UniProt P46934)
Assay: SPR

HECT domain of Nedd4, Y605A (as used for SPR), sequence (P46934 938-1319 Y1024A): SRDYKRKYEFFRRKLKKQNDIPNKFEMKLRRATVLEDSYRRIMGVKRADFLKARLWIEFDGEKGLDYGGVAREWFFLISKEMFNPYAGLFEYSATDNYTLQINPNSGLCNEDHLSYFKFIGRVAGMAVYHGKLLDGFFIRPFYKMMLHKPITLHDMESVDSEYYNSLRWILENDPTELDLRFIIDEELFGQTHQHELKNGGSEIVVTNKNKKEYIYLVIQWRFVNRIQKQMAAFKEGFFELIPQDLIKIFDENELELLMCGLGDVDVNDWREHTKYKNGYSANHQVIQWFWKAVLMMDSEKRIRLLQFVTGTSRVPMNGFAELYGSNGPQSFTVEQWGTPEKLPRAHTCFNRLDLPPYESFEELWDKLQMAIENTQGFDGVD

fold decrease in binding against wild-type HECT^Nedd4: 20 fold
Substance: ubiquitin (monomeric) (from UniProt P0CG48 1-76) (natural protein)
